Read-outs that look alike come from different tables or passages of the source.
T1: HIS tag
T1 construct: also called his6 tag; 6-His
T1 peptide: HHHHHH

T2: cynomolgus macaque PCSK9 with C-terminal his6 tag (cynomolgus monkey)
T2 chain: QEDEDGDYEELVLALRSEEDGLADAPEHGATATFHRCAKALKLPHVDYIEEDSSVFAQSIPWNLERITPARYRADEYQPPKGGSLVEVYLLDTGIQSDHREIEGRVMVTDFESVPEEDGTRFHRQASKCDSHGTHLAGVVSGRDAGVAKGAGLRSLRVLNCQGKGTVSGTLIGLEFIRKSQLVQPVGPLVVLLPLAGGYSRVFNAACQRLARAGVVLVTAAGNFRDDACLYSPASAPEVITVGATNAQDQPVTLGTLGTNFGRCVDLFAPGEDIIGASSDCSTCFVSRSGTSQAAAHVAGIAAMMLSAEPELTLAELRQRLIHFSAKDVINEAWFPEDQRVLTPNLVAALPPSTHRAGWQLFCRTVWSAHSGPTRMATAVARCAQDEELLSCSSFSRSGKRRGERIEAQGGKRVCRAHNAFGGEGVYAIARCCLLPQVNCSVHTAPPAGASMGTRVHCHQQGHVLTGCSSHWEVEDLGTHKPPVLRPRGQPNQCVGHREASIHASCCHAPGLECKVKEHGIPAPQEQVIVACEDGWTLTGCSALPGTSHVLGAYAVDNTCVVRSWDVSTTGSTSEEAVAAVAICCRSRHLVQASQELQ

T3: hFgfr4 hFc (human, UniProt P22455)
T3 sequence (fusion chain, looked up): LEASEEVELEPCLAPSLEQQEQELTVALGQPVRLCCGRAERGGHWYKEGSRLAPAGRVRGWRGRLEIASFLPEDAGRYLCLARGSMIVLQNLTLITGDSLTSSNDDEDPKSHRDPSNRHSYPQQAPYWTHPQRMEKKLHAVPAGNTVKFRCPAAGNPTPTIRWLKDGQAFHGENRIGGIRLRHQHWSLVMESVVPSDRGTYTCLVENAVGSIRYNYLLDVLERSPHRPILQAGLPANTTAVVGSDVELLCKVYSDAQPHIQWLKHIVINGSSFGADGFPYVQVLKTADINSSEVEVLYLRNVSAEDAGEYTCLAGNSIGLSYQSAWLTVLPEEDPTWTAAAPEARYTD

B1: mouse monoclonal antibody MAB1 (antibody, V domains shown)
VH: QVTLKESGPGILQPSQTLSLTCSFSGFSLSTSGMGVGWIRQPSGEGLEWLADIWWDDNKYYNPSLKSRLTVSKDTSSNQVFLKITSVDTADTATYYCALITTEGGFAYWGQGTLVTVSA
VL: DIVLTQSPATLSVTPGDSVSLSCRASQSINNNLHWYQQKSHESPRLLIKFASRSISGIPSKFSGSGSGTDFTLSINSVETEDFGMYFCQQSNYWPLTFGAGTNLELI
notes: also called parent mouse monoclonal antibody; murine anti-human Pcsk9 IgG1-kappa monoclonal antibody
B2: fully Humaneered Fab Clone #44 (Fab, part only; not given: kappa light chain, V domains shown, part only)
VH: QITLKESGPVLVKPTETLTLTCTVSGFSLSTSGVGVGWIRQPPGKALEWLADIWWDDNKYYNPSLKSRLTISKDTSKNQVVLTMTNMDPVDTATYYCARITTEGGFAYWGQGTLVTVSS
B3: Humaneered antibody MAB2 (antibody, human IgG1, V domains shown)
VH: QITLKESGPVLVKPTETLTLTCTVSGFSLSTSGVGVGWIRQPPGKALEWLADIWWDDNKYYNPSLKSRLTISKDTSKNQVVLTMTNMDPVDTATYYCARITTEGGFAYWGQGTLVTVSS
VL: DIQMTQSPSSLSASVGDRVTITCRAGQRISHNLHWYQQKPDESPRLLINFASRLISGVPSRFSGSGSGTDFTLTISSLQPEDFATYYCQQSNYWPLTFGQGTKLEIK
B4: Humaneered antibody MAB3 (antibody, human IgG1, V domains shown)
VH: QVTLKESGPTLVKPTQTLTLTCTVSGFSLSTSGVGVGWIRQSPGKALEWLADIWWDDNKYYNPSLKSRLTISKDTSKNQVVLTMTNMDPVDTATYYCARITTEGGFAYWGQGTLVTVSS
VL: DIQMTQSPSSLSASVGDRVTITCRAGQRISHNLHWYQQKPDESPRLLINFASRLISGVPSRFSGSGSGTDFTLTISSLQPEDFATYYCQQSNYWPLTFGQGTKLEIK

Key:
HIS tag = biological target: T1, HIS tag; assay: ELISA
[1] = biological target: T4, recombinant human PCSK9 (aa 31-692) with C-terminal His6 tag (human, UniProt Q8NBP7 31-692); assay: cell-based or functional assay
[2] = biological target: T4, recombinant human PCSK9 (aa 31-692) …; assay: cell-based or functional assay; remark: listed apart in the source
[3] = biological target: T4, recombinant human PCSK9 (aa 31-692) …; assay: solution equilibrium titration (SET), MSD electrochemiluminescence read-out
Procedure: Serial dilutions of Pcsk9 were prepared, and antibodies were added to each antigen concentration to reach a constant antibody concentration of 100 pM. 100 μL/well of each dilution mix was distributed in duplicate to a 96-well polypropylene microtiter plate (Greiner). The plate was sealed and incubated over night at room temperature. A 96-well Standard Bind microtiter plate (Meso Scale Discovery) was coated with 25 μL of 1 μg/mL Pcsk9 diluted in PBS. This plate was sealed and incubated over night at 4° C. After the incubation the antigen-coated Standard Bind micro titer plate was washed three times with 200 [L per well PBS/0.05% (w/v) Tween 20. Subsequently, the plate was blocked with 150 μL/well PBS/5% (w/v) BSA and incubated for one hour at room temperature with shaking. The washing steps were repeated and 25 μL/well of the antibody-antigen preparation from the polypropylene microtiter plate was transferred into the antigen-coated Standard Bind plate. The Standard Bind plate was incubated for 60 min at room temperature with shaking. […] Electrochemiluminescence signals were generated and detected by a Sector Imager 6000 (Meso Scale Discovery). […]

[4] = biological target: T2, cynomolgus macaque PCSK9 with …; assay: solution equilibrium titration (SET), fit by the model of Piehler et al.
Procedure: (§1) The binding kinetics of the final selected candidates were analyzed using a Solution Equilibrium Titration (“SET”) assay. Briefly, serial dilutions of human, cyno, mouse, or rat Pcsk9 were prepared, and anti-Pcsk9 Ab was added to each antigen concentration to reach a constant antibody concentration of 100 pM. 100 μL/well of each dilution mix was distributed in duplicate to a 96-well polypropylene microtiter plate (Greiner). The plate was sealed and incubated over night at room temperature. A 96-well Standard Bind microtiter plate (Meso Scale Discovery) was coated with 25 μL of 1 μg/mL Pcsk9 diluted in PBS. This plate was sealed and incubated overnight at 4° C. After the incubation the antigen-coated Standard Bind micro titer plate was washed three times with 200 μL per well PBS/0.05% (w/v) Tween 20. Subsequently, the plate was blocked with 150 μL/well PBS/5% (w/v) BSA and incubated for one hour at room temperature with shaking. The washing steps were repeated and 25 μL/well of the antibody-antigen preparation from the polypropylene microtiter plate was transferred into the antigen-coated Standard Bind plate. The Standard Bind plate was incubated for 60 min at room temperature with shaking. After three additional washing steps, 25 μL of 1 μg/mL Sulfo-Tag-labeled goat anti-human-detection antibody (R32AJ-5, Meso Scale Discovery) diluted in PBS/1% (w/v) BSA/0.05% (w/v) Tween 20, buffer were added to each well and incubated one hour at room temperature with shaking. […] Electrochemiluminescence signals were generated and detected by a Sector Imager 6000 (Meso Scale Discovery).

murine PCSK9 = biological target: T5, murine PCSK9 (mouse, UniProt Q80W65 35-694, limits assumed); assay: as above
T5 construct: also called mouse Pcsk9
T5 sequence (Q80W65 other isoform, or with tags, fused parts or gaps limits assumed): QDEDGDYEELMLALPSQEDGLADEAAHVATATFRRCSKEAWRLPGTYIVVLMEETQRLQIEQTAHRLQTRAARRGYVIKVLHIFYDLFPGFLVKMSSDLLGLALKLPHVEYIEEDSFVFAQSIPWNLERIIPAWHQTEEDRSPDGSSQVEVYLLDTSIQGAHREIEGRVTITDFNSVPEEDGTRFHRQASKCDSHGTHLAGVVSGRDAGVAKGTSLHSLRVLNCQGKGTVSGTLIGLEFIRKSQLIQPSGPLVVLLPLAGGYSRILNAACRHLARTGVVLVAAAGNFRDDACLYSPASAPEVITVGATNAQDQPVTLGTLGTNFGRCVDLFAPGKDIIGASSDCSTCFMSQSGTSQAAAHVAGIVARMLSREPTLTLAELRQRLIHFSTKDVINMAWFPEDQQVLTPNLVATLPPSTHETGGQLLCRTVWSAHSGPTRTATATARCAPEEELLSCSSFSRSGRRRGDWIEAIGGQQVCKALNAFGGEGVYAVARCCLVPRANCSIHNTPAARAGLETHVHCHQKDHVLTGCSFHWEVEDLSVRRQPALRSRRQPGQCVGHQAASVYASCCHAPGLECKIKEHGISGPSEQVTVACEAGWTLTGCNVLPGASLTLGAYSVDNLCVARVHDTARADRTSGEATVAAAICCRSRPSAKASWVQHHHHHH
Procedure: as §1

[5] = biological target: T4, recombinant human PCSK9 (aa 31-692) …; assay: TR-FRET competition, labelled hPcsk9 (8 nM) and labelled hLDL-R (1 nM); MAB1 antibody as competitor
Procedure: The percentage inhibition was calculated with the following formula: 100−[(normalized value of treated sample/averaged normalized value of untreated samples)×100]. The percentage inhibition dose response curves were plotted using Prism version 5 with the formula, Y=Bottom+(Top−Bottom)/(1+10̂((LogIC50−X)*HillSlope)) (GraphPad Prism Software).

[6] = biological target: biotinylated PCSK9-Avi-His6 (human) (UniProt Q8NBP7); assay: ForteBio Octet bio-layer interferometry, biotinylated PCSK9-Avi-His6 on streptavidin sensors, Fab in solution
[7] = biological target: T4, recombinant human PCSK9 (aa 31-692) …; assay: TR-FRET competition, hPcsk9-AF (8 nM) and hLDL-R-Eu (1 nM)
Source text: Data are representative of at least two independent experiments.

[8] = biological target: T4, recombinant human PCSK9 (aa 31-692) …; assay: solution equilibrium titration (SET), MSD electrochemiluminescence read-out; remark: listed apart in the source
Procedure: The binding kinetics of the final selected candidates were analyzed using a Solution Equilibrium Titration (“SET”) assay. Briefly, serial dilutions of human, cyno, mouse, or rat Pcsk9 were prepared, and anti-Pcsk9 Ab was added to each antigen concentration to reach a constant antibody concentration of 100 pM. 100 μL/well of each dilution mix was distributed in duplicate to a 96-well polypropylene microtiter plate (Greiner). The plate was sealed and incubated over night at room temperature. A 96-well Standard Bind microtiter plate (Meso Scale Discovery) was coated with 25 μL of 1 μg/mL Pcsk9 diluted in PBS. This plate was sealed and incubated overnight at 4° C. After the incubation the antigen-coated Standard Bind micro titer plate was washed three times with 200 μL per well PBS/0.05% (w/v) Tween 20. Subsequently, the plate was blocked with 150 μL/well PBS/5% (w/v) BSA and incubated for one hour at room temperature with shaking. The washing steps were repeated and 25 μL/well of the antibody-antigen preparation from the polypropylene microtiter plate was transferred into the antigen-coated Standard Bind plate. The Standard Bind plate was incubated for 60 min at room temperature with shaking. […] Electrochemiluminescence signals were generated and detected by a Sector Imager 6000 (Meso Scale Discovery).

hFgfr4 hFc [9] = biological target: T3, hFgfr4 hFc; assay: specificity ELISA, antigen coated at 88 ng per well, absorbance 650 nm
Procedure: (§2) For specificity ELISAs on purified human and mouse IgGs, a 384-well plate was coated with a panel of purified human or mouse antigens at 88 ng per well and incubated overnight at 4° C. The plate was blocked and washed as described above, then 22 μL of purified mouse or human anti-PCSK9 antibody diluted to 2 μg/mL in PBS was added to each well. The plate was incubated for 1 hr at 37° C. then washed with PBST. […] The plate was incubated for 1 hr at room temperature, then washed and developed as described above.

Rat (Pcsk9 homolog) = Rat (Pcsk9 homolog) (rat, UniProt P59996); assay: solution equilibrium titration (SET), fit by the model of Piehler et al.
Rat (Pcsk9 homolog), sequence (P59996 31-691 limits assumed): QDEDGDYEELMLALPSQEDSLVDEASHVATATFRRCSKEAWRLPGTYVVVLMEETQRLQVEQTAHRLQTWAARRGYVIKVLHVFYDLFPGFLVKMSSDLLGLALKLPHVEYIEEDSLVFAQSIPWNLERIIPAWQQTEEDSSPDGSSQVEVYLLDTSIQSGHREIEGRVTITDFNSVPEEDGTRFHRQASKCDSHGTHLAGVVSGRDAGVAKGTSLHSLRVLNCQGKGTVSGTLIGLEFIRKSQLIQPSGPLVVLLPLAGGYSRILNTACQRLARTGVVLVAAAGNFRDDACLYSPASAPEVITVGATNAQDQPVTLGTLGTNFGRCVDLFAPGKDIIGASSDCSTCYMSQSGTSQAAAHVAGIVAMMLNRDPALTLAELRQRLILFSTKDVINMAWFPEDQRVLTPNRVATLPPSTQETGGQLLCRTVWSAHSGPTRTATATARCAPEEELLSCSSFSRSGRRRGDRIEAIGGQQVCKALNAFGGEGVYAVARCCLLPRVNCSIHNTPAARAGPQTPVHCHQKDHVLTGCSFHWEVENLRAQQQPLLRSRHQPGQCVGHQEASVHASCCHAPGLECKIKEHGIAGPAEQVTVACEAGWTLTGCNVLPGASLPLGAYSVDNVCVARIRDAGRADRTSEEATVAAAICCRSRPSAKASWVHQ
Procedure: as §1

[10] = biological target: T4, recombinant human PCSK9 (aa 31-692) …; assay: solution equilibrium titration (SET): soluble human PCSK9 titrated against 100 pM antibody, free antibody captured on a Pcsk9-coated MSD plate; the concentration is that of human PCSK9
Procedure: Briefly, serial dilutions of human, cyno, mouse, or rat Pcsk9 were prepared, and anti-Pcsk9 Ab was added to each antigen concentration to reach a constant antibody concentration of 100 pM. 100 μL/well of each dilution mix was distributed in duplicate to a 96-well polypropylene microtiter plate (Greiner). The plate was sealed and incubated over night at room temperature. A 96-well Standard Bind microtiter plate (Meso Scale Discovery) was coated with 25 μL of 1 μg/mL Pcsk9 diluted in PBS. This plate was sealed and incubated overnight at 4° C. After the incubation the antigen-coated Standard Bind micro titer plate was washed three times with 200 μL per well PBS/0.05% (w/v) Tween 20. Subsequently, the plate was blocked with 150 μL/well PBS/5% (w/v) BSA and incubated for one hour at room temperature with shaking. The washing steps were repeated and 25 μL/well of the antibody-antigen preparation from the polypropylene microtiter plate was transferred into the antigen-coated Standard Bind plate. The Standard Bind plate was incubated for 60 min at room temperature with shaking. […] Electrochemiluminescence signals were generated and detected by a Sector Imager 6000 (Meso Scale Discovery).

hFgfr4 hFc [11] = biological target: T3, hFgfr4 hFc; assay: specificity ELISA, antigen coated at 88 ng per well, absorbance 650 nm; remark: listed apart in the source
Procedure: as §2

Binder | binding result (HIS tag) | DiI-LDL-uptake by HepG2 cells treated with exogenous hPcsk9, EC50 [1] [nM] | EC50, LDL-R protection (surface LDL-R on HepG2 cells, flow cytometry) [2] [nM] | Kd [3] [nM] | Kd [4] [nM] | Kd (murine PCSK9) [nM] | IC50 [5] [nM] | Kd [6] [nM] | EC50, LDL uptake (DiI-LDL uptake by HepG2 cells with hPCSK9, flow cytometry) [2] [nM] | IC50 [7] [nM] | Kd [8] [nM] | binding result (hFgfr4 hFc [9]) | Kd (Rat (Pcsk9 homolog)) [nM] | IC50 (read off the curve) [10] [nM] | binding result (hFgfr4 hFc [11])
B1 | no binding | 194 | 309 | 0.27 | 0.23 | > 10000 | 77 |  |  |  |  |  |  |  | 
B2 |  |  |  |  |  |  |  | 22.3 |  |  |  |  |  |  | 
B3 |  |  | 324 |  | 0.4 | > 10000 |  |  | 210 | 20 | 0.26 | no binding (tested: 2 µg/mL (single concentration)) | > 10000 | ~0.3 | 
B4 |  |  | 300 |  | 0.4 | > 10000 |  |  | 168 | 28 | 0.3 |  | > 10000 | ~0.3 | no binding (tested: 2 µg/mL (single concentration))

From patent publication US20130315927A1 (Novartis, published 2013)
